Consider two molecules from patent publication CN111592595A (UNIV NANJING MEDICAL, dated 2020).

One assay concerns the target T1, SARS-Cov-1-RBD-hFc蛋白 (SARS-Cov-1, UniProt P59594 306-527).
T1 construct: domain: RBD
The experiment in a line: phage ELISA on coated antigen, anti-M13-HRP detection.

For assay [1], the target named is SARS-Cov-2 spike (on lentiviral pseudovirus) (SARS-Cov-2, UniProt P0DTC2 14-1273). Briefly: cell-based or functional assay.
In a further assay the target is SARS-Cov-2-RBD-his蛋白 (SARS-Cov-2, UniProt P0DTC2 319-541).

In general, Kd refers to the concentration at which binding is half-saturated. Low values mean higher affinity, high ones lower affinity.

B1: 4A3噬菌体 (4A3 scFv displayed on phage) (scFv)
scFv: EVQLLESGGGLVQPGGSLRLSCAASGFTFSSYAMSWVRQAPGKGLEWVSSIASSGYYTDYADSVKGRFTISRDNSKNTLYLQMNSLRAEDTAVYYCAKDADSFDYWGQGTLVTVSSGGGGSGGGGSGGGGSDIQMTQSPSSLSASVGDRVTITCRASQSISSYLNWYQQKPGKAPKLLIYAASYLQSGVPSRFSGSGSGTDFTLTISSLQPEDFATYYCQQAYSAPSTFGQGTKVEIK
notes: also called 4A3抗体; 4A3的噬菌体
Take B1: the binding result with SARS-Cov-1-RBD-hFc蛋白 is reported as “no binding (tested: 5μg/ml coating)”.

B2: 4A3 IgG重组蛋白 (human IgG1) (antibody, V domains shown)
VH: EVQLLESGGGLVQPGGSLRLSCAASGFTFSSYAMSWVRQAPGKGLEWVSSIASSGYYTDYADSVKGRFTISRDNSKNTLYLQMNSLRAEDTAVYYCAKDADSFDYWGQGTLVTVSS
VL: DIQMTQSPSSLSASVGDRVTITCRASQSISSYLNWYQQKPGKAPKLLIYAASYLQSGVPSRFSGSGSGTDFTLTISSLQPEDFATYYCQQAYSAPSTFGQGTKVEIK
As for B2, the “IC50 of inhibition of pseudovirus infection of ACE2-CHO cells (Luciferase活性)” value in assay [1] came out at 0.28 µg/mL. Besides, binding in the assay with SARS-Cov-2-RBD-his蛋白 was put at a Kd of 3.62 nM.
